Assay results reported in US20220251194A1 (Merck Sharp & Dohme, published 2022).
Numbering of substitutions follows the chain as printed. In names and notes the source's numbering stands.

Legend:
[1] = biological target: T1, human PD1 on PathHunter U2OS dimer cells (human, UniProt Q15116 25-288); experiment: PathHunter dimerization assay, U2OS cells co-expressing human PD1 and LAG3; the signal needs both targets to be bound on the same cell
T1 construct: whole, on cells; On Human PD1/LAG3 dimer cell Clone #9 (Lot 56AUA) and Human PD1/TIGIT dimer cell Clone #5 (Lot 14BAU); also called hPD1; not shown: beta-galactosidase fragment (ProLink or Enzyme Acceptor)
T1 sequence (Q15116 25-288): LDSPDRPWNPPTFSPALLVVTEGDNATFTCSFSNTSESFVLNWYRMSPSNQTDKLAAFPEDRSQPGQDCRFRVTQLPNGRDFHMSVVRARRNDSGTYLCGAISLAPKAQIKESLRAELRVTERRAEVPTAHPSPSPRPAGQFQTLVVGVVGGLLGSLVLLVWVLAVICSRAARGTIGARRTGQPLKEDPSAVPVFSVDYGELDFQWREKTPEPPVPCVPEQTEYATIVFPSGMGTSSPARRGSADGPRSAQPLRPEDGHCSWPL

[2] = biological target: T2, recombinant human or cyno PD-1 (immobilized onto CM5 chip, Example 1) (human or cyno ( which was …, UniProt Q15116 25-167, limits assumed)); experiment: SPR (Biacore T200), PD-1 immobilized on CM5 chip, Fab as analyte; lower end of the printed range 2.80-2.90
T2 construct: also called antigen
T2 sequence (Q15116 25-167 limits assumed): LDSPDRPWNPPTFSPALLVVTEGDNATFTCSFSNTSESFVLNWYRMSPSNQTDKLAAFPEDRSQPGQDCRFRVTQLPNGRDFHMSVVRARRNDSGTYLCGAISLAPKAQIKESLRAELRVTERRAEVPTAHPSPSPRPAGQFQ
Procedure: (§1) Immobilization of recombinant human or cyno PD-1 onto CM5 chip: A CM5 sensor chip was activated in FC2 by 7-min. injection (10 μl/min.) of freshly prepared 1:1 50 mM NHS: 200 mM EDC. PD-1 at a concentration of 0.2 μg/ml in 10 mM sodium acetate buffer pH 5.0 was injected onto the activated chip at 5 μl/min. (HBS-EP running buffer: 10 mM HEPES, 150 mM NaCl, 3.4 mM EDTA, 0.005% surfactant P20, pH 7.4) for 120 seconds. The remaining active coupling sites were blocked with 7 min. injection of 1M ethanolamine at 10 μl/min.
(§2) Binding kinetics measurement: Various concentrations of the Fabs were injected with a flow rate of 30 μl/min for 180 seconds(s) during the association phase. The dissociation of bound antibody was monitored by flowing HBS-EP buffer over the chip surface for 600 seconds. At the end of each cycle, the sensor surfaces were regenerated by injecting regeneration buffer (10 mM glycine buffer with pH 1.7) for 180 seconds. After sensograms were corrected for signals from a reference flow, kinetics were calculated with BIACORE T 200 evaluation software ver.1.0 (Biacore, GE, USA).

[3] = biological target: T2, recombinant human or cyno PD-1 …; experiment: SPR (Biacore), Fab against PD-1
Procedure: as §1, §2

[4] = biological target: T3, human TIGIT (94AGV) (human, UniProt Q495A1 22-141, limits assumed); experiment: SPR (Biacore T200 or 4000), antibody captured via anti-human Fc, antigen as analyte
T3 construct: Lot 94AGV is not described further
T3 sequence (looked up): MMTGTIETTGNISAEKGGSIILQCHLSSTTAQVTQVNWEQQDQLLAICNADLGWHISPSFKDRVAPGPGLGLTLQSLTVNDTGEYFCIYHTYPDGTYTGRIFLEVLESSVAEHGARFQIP
Procedure: (§3) Binding affinities were measured using a Biacore T200 or Biacore 4000 biosensor (GE Healthcare, Chicago, Ill.). The following running buffer, 10 mM HEPES, 150 mM NaCl, 0.05% v/v Surfactant P20, 3 mM EDTA (GE Healthcare, BR100669, Chicago, Ill.), was used for immobilization, sample dilution and data collection. All experiments were performed at 25° C. Antigen binding to antibodies captured via an anti-human Fc antibody was measured using a Series S Sensor Chip CM5 (GE Healthcare, 29149603, Chicago, Ill.). An anti-human Fc antibody was immobilized on all surfaces of the chip according to the instructions in the Human Antibody Capture Kit (GE Healthcare, BR100839, Chicago, Ill.) and the Amine Coupling Kit (GE Healthcare, BR100633, Chicago, Ill.). […] After the antigen injections the dissociation of the interaction was monitored for 15 minutes. Between binding cycles the antibody and antigen were removed from the chip with a 30 second injection of 3 M MgCl₂.
(§4) The data were processed and fit using Biacore T200 Evaluation Software version 2.0 or Biacore 4000 Evaluation Software version 1.1 (GE Healthcare, Chicago, Ill.). The data were “double referenced” by subtracting the response from a negative control flowcell and subtracting the response from a buffer injection or the average response from two buffer injections. The data were then fit with the ‘1:1 Binding’ model to determine the association rate constant, kₐ (M⁻¹s⁻¹, where “M” equals molar and “s” equals seconds) and the dissociation rate constant, kd (s⁻¹). These rate constants were used to calculate the equilibrium dissociation constant, KD (M)=[…].

[5] = biological target: T4, Human PD1 (50AFR), [VEGF leader]-Sino-Bio-PD-1_H-[His9G] (human, UniProt Q15116 25-167); experiment: as above
T4 construct: Expressed with a VEGF leader; also called PD-1-His (50AFR)
T4 sequence (Q15116 25-167): as the sequence (Q15116 25-167 limits assumed) above
Procedure: as §3, §4

[6] = biological target: T5, human LAG-3 (60AXE) (human, UniProt P18627 23-450, limits assumed); experiment: as above
T5 construct: Lot 60AXE is not described further
T5 sequence (looked up): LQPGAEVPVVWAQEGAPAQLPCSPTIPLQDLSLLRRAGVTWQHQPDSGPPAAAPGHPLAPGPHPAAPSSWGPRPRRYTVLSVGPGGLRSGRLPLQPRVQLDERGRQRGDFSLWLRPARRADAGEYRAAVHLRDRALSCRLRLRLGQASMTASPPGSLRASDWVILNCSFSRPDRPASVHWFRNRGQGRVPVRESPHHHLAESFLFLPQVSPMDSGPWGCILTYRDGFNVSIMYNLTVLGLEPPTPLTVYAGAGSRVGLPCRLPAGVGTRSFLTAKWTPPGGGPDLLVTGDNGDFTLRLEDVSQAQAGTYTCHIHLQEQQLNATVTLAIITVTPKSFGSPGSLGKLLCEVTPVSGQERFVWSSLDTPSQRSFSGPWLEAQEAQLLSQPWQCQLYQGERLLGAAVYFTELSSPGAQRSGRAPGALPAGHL
Procedure: as §3, §4

B1: Humanized x [LAG3_H][TIGIT_H] BsAb (22D2 VH6 C-term 31C6 scFv VL-VH / VL3 Y31W) IgG1 L234A L235A D265S / Kappa (Lot 80BCK) (bispecific antibody)
heavy: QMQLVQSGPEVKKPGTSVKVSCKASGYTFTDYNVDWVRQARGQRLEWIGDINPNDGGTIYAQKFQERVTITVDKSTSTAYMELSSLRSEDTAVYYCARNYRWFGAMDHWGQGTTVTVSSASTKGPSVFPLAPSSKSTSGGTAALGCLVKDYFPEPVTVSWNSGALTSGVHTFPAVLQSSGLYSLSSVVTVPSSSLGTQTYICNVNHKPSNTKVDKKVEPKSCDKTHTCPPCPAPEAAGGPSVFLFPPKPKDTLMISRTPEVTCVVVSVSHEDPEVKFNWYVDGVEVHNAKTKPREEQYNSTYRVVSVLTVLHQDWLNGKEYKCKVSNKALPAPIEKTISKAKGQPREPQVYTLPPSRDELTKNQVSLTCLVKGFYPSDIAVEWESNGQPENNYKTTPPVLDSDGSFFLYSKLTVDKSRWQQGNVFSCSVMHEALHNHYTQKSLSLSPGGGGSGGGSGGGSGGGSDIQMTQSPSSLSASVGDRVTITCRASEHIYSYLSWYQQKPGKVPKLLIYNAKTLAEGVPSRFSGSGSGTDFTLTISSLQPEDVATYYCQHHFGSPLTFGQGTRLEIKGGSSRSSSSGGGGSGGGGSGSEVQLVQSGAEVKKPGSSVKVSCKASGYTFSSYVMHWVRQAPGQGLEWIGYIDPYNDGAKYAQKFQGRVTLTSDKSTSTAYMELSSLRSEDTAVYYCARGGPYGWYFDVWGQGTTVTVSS
light: DIVMTQTPLSLSVTPGQPASISCKASQSLDWEGDSDMNWYLQKPGQPPQLLIYGASNLESGVPDRFSGSGSGTDFTLKISRVEAEDVGVYYCQQSTEDPRTFGGGTKVEIKRTVAAPSVFIFPPSDEQLKSGTASVVCLLNNFYPREAKVQWKVDNALQSGNSQESVTEQDSKDSTYSLSSTLTLSKADYEKHKVYACEVTHQGLSSPVTKSFNRGEC
notes: Anti-LAG3 IgG1 with an anti-TIGIT scFv at the C-terminus of the heavy chain; also called 80BCK (control); Hz x Hu [LAG3]; [TIGIT]; BsAb (Y31W)
**Q.** Does B1 bind [1]?
**A.** no binding

B2: Fab001 (humanized 08A Fab with S61N glycosylation site correction) (Fab, V domains shown)
VH: EVQLVQSGAEVKKPGASVKVSCKASGYTFTSYYLYWVRQAPGQGLEWIGGVNPSNGGTNFNEKFKSRVTLTVDTSISTAYMELSRLRSDDTAVYYCTRRDSNYDGGFDYWGQGTTVTVSS
VL: DIVMTQTPLSLSVTPGQPASISCRASKSVSTSGFSYLHWYLQKPGQPPQLLIFLASNLESGVPDRFSGSGSGTDFTLKISRVEAEDVGVYYCQHSWELPLTFGQGTKLEIKR
notes: Fab with IgG4 CH1 and kappa light chain
**Q.** How did the Kd [2] turn out when B2 was run?
**A.** 0.28 to 0.29 nM

B3: Fab 004 (Fab, V domains shown)
VH: B2 VH with D100L, N102H
VL: B2 VL
notes: also called 3G9; H3G9
**Q.** B3 was tested. Which “fold improvement in KD over 08A” value [3] did it give?
**A.** 2 fold

B4: anti-PD-1/LAG-3/TIGIT trispecific antibody (TsAbY31W) (Lot 30BCM) (other)
heavy 1: EVQLVQSGAEVKKPGASVKVSCKASGYTFTSYYLYWVRQAPGQGLEWIGGVNPSNAGTNFNEKFKSRVTLTVDTSISTAYMELSRLRSDDTAVYYCTRRLSHYDGGFDYWGQGTTVTVSSASTKGPSVFPLAPSSKSTSGGTAALGCEVTDYFPEPVTVSWNSGALTSGVHTFPAVLESSGLYSLLSVVTVPSSSLGTQTYICNVNHKPSNTKVDKKVEPKSCDKTHTCPPCPAPEAAGGPSVFLFPPKPKDTLMISRTPEVTCVVVSVSHEDPEVKFNWYVDGVEVHNAKTKPREEQYNSTYRVVSVLTVLHQDWLNGKEYKCKVSNKALPAPIEKTISKAKGQPREPQVYVYPPSRDELTKNQVSLTCLVKGFYPSDIAVEWESNGQPENNYKTTPPVLDSDGSFALVSKLTVDKSRWQQGNVFSCSVMHEALHNHYTQKSLSLSPGGGGSGGGSGGGSGGGSDIQMTQSPSSLSASVGDRVTITCRASEHIYSYLSWYQQKPGKVPKLLIYNAKTLAEGVPSRFSGSGSGTDFTLTISSLQPEDVATYYCQHHFGSPLTFGQGTRLEIKGGSSRSSSSGGGGSGGGGSGSEVQLVQSGAEVKKPGSSVKVSCKASGYTFSSYVMHWVRQAPGQGLEWIGYIDPYNDGAKYAQKFQGRVTLTSDKSTSTAYMELSSLRSEDTAVYYCARGGPYGWYFDVWGQGTTVTVSS
light 1: DIVMTQTPLSLSVTPGQPASISCRASKSVSTSGFSYLHWYLQKPGQPPQLLIFLSKYRSSGVPDRFSGSGSGTDFTLKISRVEAEDVGVYYCSQAYHLPLTFGQGTKLEIKRTVAAPSVFIFPPSDERLKSGTASVVCLLNNFYPREAKVQWKVDNALQSGNSQESVTEQDSKDSTYSLSSRLTLSKADYEKHKVYACEVTHQGLSSPVTKSFNRGEC
heavy 2: QMQLVQSGPEVKKPGTSVKVSCKASGYTFTDYNVDWVRQARGQRLEWIGDINPNDGGTIYAQKFQERVTITVDKSTSTAYMELSSLRSEDTAVYYCARNYRWFGAMDHWGQGTTVTVSSASTKGPSVFPLAPSSKSTSGGTAALGCLVKDYFPEPVTVSWNSGALTSGVHTFPAVLQSSGLYKLSSVVTVPSSSLGTQTYICNVNHKPSNTKVDKKVEPKSCDKTHTCPPCPAPEAAGGPSVFLFPPKPKDTLMISRTPEVTCVVVSVSHEDPEVKFNWYVDGVEVHNAKTKPREEQYNSTYRVVSVLTVLHQDWLNGKEYKCKVSNKALPAPIEKTISKAKGQPREPQVYVLPPSRDELTKNQVSLLCLVKGFYPSDIAVEWESNGQPENNYLTWPPVLDSDGSFFLYSKLTVDKSRWQQGNVFSCSVMHEALHNHYTQKSLSLSPGGGGSGGGSGGGSGGGSDIQMTQSPSSLSASVGDRVTITCRASEHIYSYLSWYQQKPGKVPKLLIYNAKTLAEGVPSRFSGSGSGTDFTLTISSLQPEDVATYYCQHHFGSPLTFGQGTRLEIKGGSSRSSSSGGGGSGGGGSGSEVQLVQSGAEVKKPGSSVKVSCKASGYTFSSYVMHWVRQAPGQGLEWIGYIDPYNDGAKYAQKFQGRVTLTSDKSTSTAYMELSSLRSEDTAVYYCARGGPYGWYFDVWGQGTTVTVSS
light 2: B1 light with Q128E, S135T, T182Y, T184E
notes: Trispecific heterodimeric IgG1 / kappa; also called Y31W mutant; Hz x Hu [PD-1]; [TIGIT]; [LAG3]; TsAb (Y31W)
**Q.** Which Kd [4] does the source give for B4 here?
**A.** 1.09 nM

**Q.** What about the Kd [5] of the same binder?
**A.** 0.289 nM

**Q.** And the Kd [6]?
**A.** 0.023 nM
